{"source": "patent US10294504B2", "about": "“Mutant endoglycoceramidases with enhanced synthetic activity” (La Jolla Pharmaceutical Company, priority 2004, dated 2019)", "molecules": {"B1": {"name": "Rhodococcus M-777 EGC: wild-type endoglycoceramidase from Rhodococcus sp. M-777, GenBank AAB67050, SEQ ID NO:3 (protein, listed as Rhodococcus sp.)", "chain": "MRRTRLVSLIVTGSLVFGGGVAAAQSSLAASGSGSGSGTALTPSYLKDDDGRSLILRGFNTASSAKSAPDGMPQFTEADLAREYADMGTNFVRFLISWRSVEPAPGVYDQQYLDRVEDRVGWYAERGYKVMLDMHQDVYSGAITPEGNSGNGAGAIGNGAPAWATYMDGLPVEPQPRWELYYIQPGVMRAFDNFWNTTGKHPELVEHYAKAWRAVADRFADNDAVVAYDLMNEPFGGSLQGPAFEAGPLAAMYQRTTDAIRQVDQDTWVCVAPQAIGVNQGLPSGLTKIDDPRAGQQRIAYCPHLYPLPLDIGDGHEGLARTLTDVTIDAWRANTAHTARVLGDVPIILGEFGLDTTLPGARDYIERVYGTAREMGAGVSYWSSDPGPWGPYLPDGTQTLLVDTLNKPYPRAVAGTPTEWSSTSDRLQLTIEPDAAITAPTEIYLPEAGFPGDVHVEGADVVGWDRQSRLLTVRTPADSGNVTVTVTPAA"}}, "assay": "Hydrolysis kinetics of wild-type Rhodococcus EGC using 2,4-dinitrophenyl lactoside as the substrate", "format": "biochemical", "procedure": "FIG. 18 illustrates a Michaelis-Menten curve for wild-type Rhodococcus EGC using 2,4-dinitrophenyl lactoside as the substrate.\nFIGS. 19A-19C illustrate variation of kcat, Km, and kcat/Km with increasing detergent concentration for wild-type Rhodococcus EGC.\nFIG. 20 illustrates pH rate profile for wild-type Rhodococcus EGC.\nUsing 2,4-dinitrophenyl lactoside as a substrate, the Rhodococcus M-777 EGC enzyme has a Km of approximately 2 mM, and a kcat of 90 min-1 (FIG. 18). The dependence of the activity on detergent concentration was also investigated. […] The dependence of kcat/Km on detergent concentration leveled off at concentrations greater than 0.5%; increasing the detergent concentration caused a steady increase in both kcat and Km up to a concentration of 1% (FIGS. 19A-C). The pH dependence of the hydrolysis activity was also investigated. As expected, the maximal kcat/Km is observed around pH 5 (FIG. 20).", "key": {"[1]": {"settings": "substrate 2,4-dinitrophenyl lactoside"}}, "data": [{"molecule": "B1", "values": [{"measurement": "rate of hydrolysis", "setting": "in the absence of detergent", "result": "very low"}, {"measurement": "pH of maximal kcat/Km", "setting": "pH dependence of the hydrolysis activity", "result": "~5", "unit": "pH"}, {"measurement": "Km", "setting": "[1]", "result": "~2", "unit": "mM"}, {"measurement": "kcat", "setting": "[1]", "result": 90, "unit": "min⁻¹"}]}]}
